Experimental data reported in paper PMC5201417, “Drosophila non-muscle myosin II motor activity determines the rate of tissue folding” (eLife, 2016).

B1: Drosophila myosin essential light chain (Mlc-c) (natural protein, Drosophila melanogaster, UniProt P54357 1-147, looked up)
light: MAAYTEDQLAEFQEAFNLFDNRGDGKIQLSQVGECLRALGQNPTESDVKKCTHQLKPDERISFEVFLPIYQAISKARSGDTADDFIEGLRHFDKDASGYISSAELRHLLTTLGEKLTDEEVEQLLANMEDQQGNINYEEFVRMVMSG
notes: Drosophila myosin essential light chain Mlc-c; 16 kDa on the gel; also called ELC; source: Sf9 insect cells (baculovirus, polycistronic vector with Sqh), co-expressed and co-purified with the heavy chain
B2: Drosophila myosin regulatory light chain (Sqh), wild type (natural protein, Drosophila melanogaster, UniProt P40423 1-174, looked up)
light: MSSRKTAGRRATTKKRAQRATSNVFAMFDQAQIAEFKEAFNMIDQNRDGFVEKEDLHDMLASLGKNPTDDYLDGMMNEAPGPINFTMFLTLFGERLQGTDPEDVIKNAFGCFDEENMGVLPEDRLRELLTTMGDRFTDEDVDEMYREAPIKNGLFDYLEFTRILKHGAKDKDEQ
notes: Drosophila myosin regulatory light chain Sqh (spaghetti squash); 19 kDa on the gel; also called RLC; RLC-TS; source: Sf9 insect cells (baculovirus, polycistronic vector with Mlc-c), co-expressed and co-purified with the heavy chain

Experiments:
[1] = biological target: Drosophila non-muscle myosin II heavy chain, full length (amino acids 1-1971) (Drosophila melanogaster) (UniProt Q99323); test: co-purification (Flag affinity chromatography, stained SDS gel); heavy chain and both light chains co-expressed in Sf9 cells, purified via Flag affinity chromatography (HMM also by size exclusion chromatography); PageBlue-stained 4-12% Bis-Tris gel
Sequence of Drosophila non-muscle myosin II heavy chain, full length (amino acids 1-1971) (Drosophila melanogaster) (Q99323 other isoform, or with tags, fused parts or gaps): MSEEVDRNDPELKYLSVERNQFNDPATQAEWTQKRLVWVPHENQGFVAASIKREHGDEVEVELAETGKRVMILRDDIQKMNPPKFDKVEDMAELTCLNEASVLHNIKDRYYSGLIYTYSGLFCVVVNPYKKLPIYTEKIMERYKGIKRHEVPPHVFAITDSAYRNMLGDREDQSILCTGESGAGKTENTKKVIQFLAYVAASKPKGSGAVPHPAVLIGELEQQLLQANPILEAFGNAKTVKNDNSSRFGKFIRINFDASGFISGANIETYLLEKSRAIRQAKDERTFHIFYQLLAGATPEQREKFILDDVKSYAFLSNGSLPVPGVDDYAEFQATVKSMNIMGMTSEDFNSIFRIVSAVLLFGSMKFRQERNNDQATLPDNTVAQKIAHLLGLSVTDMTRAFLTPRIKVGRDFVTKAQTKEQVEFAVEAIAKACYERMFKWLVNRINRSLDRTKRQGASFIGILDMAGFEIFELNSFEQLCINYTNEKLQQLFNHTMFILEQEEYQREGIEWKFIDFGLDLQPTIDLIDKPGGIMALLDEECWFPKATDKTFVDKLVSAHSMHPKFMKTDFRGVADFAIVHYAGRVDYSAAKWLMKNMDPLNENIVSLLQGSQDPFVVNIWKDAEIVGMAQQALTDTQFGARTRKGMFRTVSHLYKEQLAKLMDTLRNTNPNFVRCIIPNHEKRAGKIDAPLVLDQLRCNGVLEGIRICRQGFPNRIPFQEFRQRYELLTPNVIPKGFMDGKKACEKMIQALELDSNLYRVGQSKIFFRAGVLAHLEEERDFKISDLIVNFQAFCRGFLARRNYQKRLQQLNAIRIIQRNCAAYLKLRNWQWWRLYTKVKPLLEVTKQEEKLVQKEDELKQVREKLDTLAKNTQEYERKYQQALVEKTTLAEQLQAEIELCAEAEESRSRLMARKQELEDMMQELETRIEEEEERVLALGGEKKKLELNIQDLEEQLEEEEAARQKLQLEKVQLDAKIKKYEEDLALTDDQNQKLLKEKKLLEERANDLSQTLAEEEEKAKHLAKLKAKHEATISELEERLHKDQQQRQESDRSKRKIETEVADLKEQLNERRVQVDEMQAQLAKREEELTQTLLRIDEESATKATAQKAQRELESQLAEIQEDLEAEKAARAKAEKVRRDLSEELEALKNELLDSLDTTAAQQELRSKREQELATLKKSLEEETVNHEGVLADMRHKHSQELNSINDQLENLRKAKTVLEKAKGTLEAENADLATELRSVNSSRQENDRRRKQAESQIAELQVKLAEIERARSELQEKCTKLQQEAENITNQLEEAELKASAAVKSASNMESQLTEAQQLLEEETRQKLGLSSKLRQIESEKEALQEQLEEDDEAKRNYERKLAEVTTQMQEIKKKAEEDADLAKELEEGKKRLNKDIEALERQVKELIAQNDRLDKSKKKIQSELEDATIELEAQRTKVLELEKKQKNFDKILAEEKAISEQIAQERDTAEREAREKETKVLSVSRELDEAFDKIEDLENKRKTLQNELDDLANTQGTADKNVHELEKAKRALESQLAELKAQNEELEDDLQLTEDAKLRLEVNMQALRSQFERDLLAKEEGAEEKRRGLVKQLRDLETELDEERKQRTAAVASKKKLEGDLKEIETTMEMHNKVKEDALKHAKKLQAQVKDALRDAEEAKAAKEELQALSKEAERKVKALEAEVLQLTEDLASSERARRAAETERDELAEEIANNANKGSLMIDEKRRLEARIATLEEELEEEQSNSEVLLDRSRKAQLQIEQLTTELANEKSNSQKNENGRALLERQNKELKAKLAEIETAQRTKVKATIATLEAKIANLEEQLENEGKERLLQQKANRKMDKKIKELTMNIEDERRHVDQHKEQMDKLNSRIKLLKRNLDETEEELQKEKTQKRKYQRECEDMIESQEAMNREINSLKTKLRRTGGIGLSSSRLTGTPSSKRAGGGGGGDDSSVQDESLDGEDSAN

[2] = biological target: Drosophila non-muscle myosin II heavy chain, HMM construct (amino acids 1-1363) (Drosophila melanogaster) (UniProt Q99323); test: as above
Sequence of Drosophila non-muscle myosin II heavy chain, HMM construct (amino acids 1-1363) (Drosophila melanogaster) (Q99323 other isoform, or with tags, fused parts or gaps): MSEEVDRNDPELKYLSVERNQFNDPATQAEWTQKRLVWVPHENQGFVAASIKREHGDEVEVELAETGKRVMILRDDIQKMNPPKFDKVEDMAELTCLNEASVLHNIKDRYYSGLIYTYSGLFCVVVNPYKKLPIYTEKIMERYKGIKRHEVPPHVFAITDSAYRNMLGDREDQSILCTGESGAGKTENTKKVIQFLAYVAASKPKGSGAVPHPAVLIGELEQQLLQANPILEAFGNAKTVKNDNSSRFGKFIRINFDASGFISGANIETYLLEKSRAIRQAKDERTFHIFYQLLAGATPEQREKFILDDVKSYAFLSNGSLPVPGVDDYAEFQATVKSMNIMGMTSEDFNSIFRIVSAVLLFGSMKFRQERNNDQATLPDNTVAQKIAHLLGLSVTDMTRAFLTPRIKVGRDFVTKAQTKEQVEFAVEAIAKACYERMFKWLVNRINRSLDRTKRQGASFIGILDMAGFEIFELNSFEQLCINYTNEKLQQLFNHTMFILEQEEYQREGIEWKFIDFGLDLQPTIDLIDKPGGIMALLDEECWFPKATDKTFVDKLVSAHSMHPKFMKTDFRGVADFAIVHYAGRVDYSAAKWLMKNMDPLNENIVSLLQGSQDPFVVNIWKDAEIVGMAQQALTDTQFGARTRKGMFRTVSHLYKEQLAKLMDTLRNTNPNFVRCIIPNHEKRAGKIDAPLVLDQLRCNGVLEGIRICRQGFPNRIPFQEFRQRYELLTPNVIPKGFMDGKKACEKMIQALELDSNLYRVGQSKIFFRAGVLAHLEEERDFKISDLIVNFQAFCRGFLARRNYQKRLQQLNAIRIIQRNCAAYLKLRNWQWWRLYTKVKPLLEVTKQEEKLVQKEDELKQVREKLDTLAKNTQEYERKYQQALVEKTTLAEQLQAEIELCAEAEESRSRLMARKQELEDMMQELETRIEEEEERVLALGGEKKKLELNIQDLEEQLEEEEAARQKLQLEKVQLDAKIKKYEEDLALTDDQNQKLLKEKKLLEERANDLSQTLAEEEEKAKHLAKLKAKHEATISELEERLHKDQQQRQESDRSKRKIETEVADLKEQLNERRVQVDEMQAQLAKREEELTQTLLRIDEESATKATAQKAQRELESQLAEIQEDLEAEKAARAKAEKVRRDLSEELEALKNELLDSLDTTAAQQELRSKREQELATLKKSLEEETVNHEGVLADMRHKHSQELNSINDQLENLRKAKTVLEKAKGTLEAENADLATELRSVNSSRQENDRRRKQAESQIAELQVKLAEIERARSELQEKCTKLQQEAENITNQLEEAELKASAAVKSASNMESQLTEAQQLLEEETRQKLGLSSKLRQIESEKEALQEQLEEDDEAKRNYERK

[3] = biological target: filamentous actin from rabbit skeletal muscle (rabbit) (UniProt P68135)
[4] = biological target: T1, Drosophila non-muscle myosin II heavy chain, HMM construct (amino acids 1-1363) (Drosophila melanogaster, UniProt Q99323-2 1-1363); test: co-purification (Flag affinity chromatography, stained SDS gel); heavy chain and both light chains co-expressed in Sf9 cells, purified via Flag affinity chromatography (HMM also by size exclusion chromatography); PageBlue-stained 4-12% Bis-Tris gel; conditions: partners not purified
T1 construct: numbers count on: NP_001014553.1; the heavy chain alone, for the rows of heavy chain with each light chain; whether it carries the Halo tag is not clear; also called HMM (160 kDa); myosin heavy chain

[5] = biological target: T2, Drosophila non-muscle myosin II heavy chain, full length (amino acids 1-1971) (Drosophila melanogaster, UniProt Q99323-2 1-1971); test: as above; conditions: partners not purified
T2 construct: the heavy chain alone, for the rows of heavy chain with each light chain; also called full-length (228 kDa); myosin heavy chain

Molecule | stoichiometry N [1] | stoichiometry N [2] | Kapp (apparent actin affinity) of the actin-activated steady-state ATPase, NADH-linked assay at 25°C, 0-100 µM filamentous actin, Michaelis-Menten fit [3] [µM] | stoichiometry N [4] | stoichiometry N [5]
Drosophila myosin regulatory light chain (Sqh), mutant RLC-AA (natural protein) | 1 | 1 |  |  | 
Drosophila myosin regulatory light chain (Sqh), mutant RLC-AE (natural protein) | 1 | 1 |  |  | 
Drosophila myosin regulatory light chain (Sqh), mutant RLC-AS (natural protein) | 1 | 1 |  |  | 
Drosophila myosin regulatory light chain (Sqh), mutant RLC-EE (natural protein) | 1 | 1 |  |  | 
Drosophila myosin regulatory light chain (Sqh), mutant RLC-TA (natural protein) | 1 | 1 |  |  | 
Drosophila non-muscle myosin II heavy meromyosin (HMM) with wild-type RLC, phosphorylated by MLCK (from UniProt Q99323-2 1-1363; P40423 1-174; P54357 1-147) (complex) |  |  | 38.9 |  | 
B1 |  |  |  | 1 | 1
B2 |  |  |  | 1 | 1
